The target in assay [1] is T1, human CD40 expressed on cells (human, UniProt P25942 21-277). As to the kind of experiment: cell-based or functional assay.
The target in assay [2] is T1, human CD40 expressed on cells. Kind of assay: cell-based or functional assay. The source holds these as a separate data set.
Assay [3] shares this target. Kind of assay: cell-based or functional assay. This is another data set of the same source.
The target in assay [4] is T2, human CD40 extracellular domain expressed with a C-terminal myc-myc-hexahistidine tag (human).
T2 construct: also called hCD40-MMH; hCD40-mmH
As to the kind of experiment: ELISA, blocks 40 nM hCD40-mmH binding to coated 9His-hCD40L. The procedure: In the blocking assay, 9His-hCD40L was passively absorbed at a concentration of 5 μg/mL in PBS on a 96-well microtiter plate overnight at 4° C. […] In a separate 96-well microtiter plate, a fixed amount of 40 nM hCD40-mmH was pre-mixed with one of the following antibodies, at concentrations ranging from 977 pM to 1 μM in PBS+0.5% BSA: (1) anti-CD40×CD40 bispecific antibodies (REGN16431, REGN16432, REGN16634, and REGN16335); (2) parental anti-CD40 mAbs (bivalent antibodies comprising 2 fragment antigen-binding [Fab] arms identical to one of anti-CD40 Fab of anti-CD40×CD40 antibodies); (3) anti-CD40×Irrelevant antibodies (bivalent antibodies that incorporate one Fab arm identical to one of anti-CD40 Fab of anti-CD40×CD40 antibodies and another Fab arm specific to an irrelevant antigen); and (4) human IgG4 with Fc mutation isotype control antibodies (REGN7540 and REGN4513). The fixed concentration of hCD40-mmH was selected to be near the concentration (EC₅₀ value) that generated 50% of the maximal binding to the plate-adhered 9His-hCD40L. After one-hour incubation, the antibody-antigen complexes were transferred to the microtiter plate coated with 9His-hCD40L. After one hour incubation at room temperature, the plates were washed, and plate-bound hCD40-mmH protein was detected with horseradish peroxidase (HRP) conjugated goat anti-c-Myc antibody. The plates were then developed using TMB substrate solution (BD Biosciences) according to the manufacturer's recommended procedure and the absorbance at 450 nm (OD₄₅₀) was measured on a SpectraMax i3× plate reader.
Binding data were analyzed using a sigmoidal (four-parameter logistic) dose-response model with GraphPad Prism™ software. […] The percent blocking of tested antibodies at the highest tested concentration ([…]) was calculated based on the formula shown below: […]

The target of assay [5] is T1, human CD40 expressed on cells. As to the kind of experiment: cell-based or functional assay. This is another data set of the same source.
Assay [6] has the same target. Kind of assay: cell-based or functional assay. The source holds these as a separate data set.
Assay [7] shares this target. As to the kind of experiment: cell-based or functional assay. The source holds these as a separate data set.
Assay [8] shares this target. Kind of assay: cell-based or functional assay. This is another data set of the same source.
The target is the same in assay [9]. As to the kind of experiment: cell-based or functional assay. This is another data set of the same source.
The target is the same in assay [10]. Kind of assay: cell-based or functional assay. The source holds these as a separate data set.

T2 sequence (chain, as listed by the source limits assumed): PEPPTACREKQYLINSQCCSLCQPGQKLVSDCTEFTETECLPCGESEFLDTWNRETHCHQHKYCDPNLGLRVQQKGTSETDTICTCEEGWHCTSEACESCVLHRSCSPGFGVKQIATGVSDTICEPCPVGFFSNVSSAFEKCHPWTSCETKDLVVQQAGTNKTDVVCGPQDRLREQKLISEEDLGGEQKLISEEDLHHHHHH
T1 sequence (P25942 21-277): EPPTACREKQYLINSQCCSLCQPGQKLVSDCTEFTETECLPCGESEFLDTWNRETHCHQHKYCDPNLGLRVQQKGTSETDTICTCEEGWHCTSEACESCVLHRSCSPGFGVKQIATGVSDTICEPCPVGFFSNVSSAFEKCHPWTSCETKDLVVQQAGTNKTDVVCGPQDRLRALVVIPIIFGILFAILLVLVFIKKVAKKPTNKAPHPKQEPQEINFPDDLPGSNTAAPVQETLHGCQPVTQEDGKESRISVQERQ

B1: REGN17289 (antibody, V domains shown)
VH: EVQLVESGGGLVQPGGSLRLSCAASGFTFSSYAMNWVRQAPGKGLEWVSIISGTIGKTYYADSVKGRFTISRDNSKNTLYLQMNSLRGEDTAVYYCAKDTERDITGSPFDYWGQGTLVTVSS
VL: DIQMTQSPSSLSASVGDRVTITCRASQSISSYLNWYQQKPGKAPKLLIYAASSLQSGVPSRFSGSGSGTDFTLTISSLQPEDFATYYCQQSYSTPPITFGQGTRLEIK
For B1, in assay [1], the “EC50 in the presence of CD40L (potentiation), NFkB-luc Ramos, 500 pM hCD40L” value was 7.51e-12 M; the “Max % activation, NFkB-luc Ramos, no ligand” value was 4%; the “Max % inhibition, NFkB-luc Ramos, 500 pM hCD40L” value (from here on “Max % inhibition, NFkB-luc Ramos”) was -133%. Besides, in assay [2], the “IC50, NFkB-luc Raji, 900 pM hCD40L” value was determined as 2.72e-11 M; the “Max % activation, NFkB-luc Raji, no ligand” value is 10%; the “Max % inhibition, NFkB-luc Raji, 900 pM hCD40L” value (shortened to “Max % inhibition, NFkB-luc Raji”) turned out to be 55%. In addition, in assay [3], the “EC50 in the presence of CD40L (potentiation), NFkB-luc THP-1, 10 nM hCD40L” value is 16 pM; the “Max % activation, NFkB-luc THP-1, no ligand” value came out at 1%; the “Max % inhibition, NFkB-luc THP-1, 10 nM hCD40L” value (shortened to “Max % inhibition … 10 nM hCD40L”) was -92%.

B2: REGN17288 (antibody, V domains shown)
VH: QLQLQESGPGLVRPSETLSLTCSVSGASMNTNNYYWGWIRQPPGKGLEWIGSGYYNGNTYYNPSLKSRVTISVDTSKNQFSLKLNSVTAADTAVYYCARQTPPRIIGSPNIWGQGTMVTVSS
VL: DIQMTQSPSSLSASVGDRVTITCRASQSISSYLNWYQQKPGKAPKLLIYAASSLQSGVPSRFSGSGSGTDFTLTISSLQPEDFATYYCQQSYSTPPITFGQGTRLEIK
B2: in assay [1], the “IC50, NFkB-luc Ramos, 500 pM hCD40L” value was determined as 4.07e-11 M; the “Max % activation, NFkB-luc Ramos, no ligand” value stood at 6%; the “Max % inhibition, NFkB-luc Ramos” value came out at 88%. Further, in assay [2], the “IC50, NFkB-luc Raji, 900 pM hCD40L” value worked out at 4.28e-11 M; the “Max % activation, NFkB-luc Raji, no ligand” value was 14%; the “Max % inhibition, NFkB-luc Raji” value was determined as 90%. For the same molecule, in assay [3], the “IC50, NFkB-luc THP-1, 10 nM hCD40L” value turned out to be 334 pM; the “Max % activation, NFkB-luc THP-1, no ligand” value is 0%; the “Max % inhibition … 10 nM hCD40L” value turned out to be 98%. Moreover, the “% Blocking at highest mAb concentration” value in [4] turned out to be 94%.

B3: REGN17544 (antibody, V domains shown)
VH: EVQLVESGGGLVQPGGSLRLSCAASGFTFGSYGMAWVRQAPGKGLEWVSAISGSGDYTNYADSVKRRFTISRDNSKNTLYLQMSSLRAEDTAVYYCAKEKTGTTGYLYSGMDVWGQGTTVTVSS
VL: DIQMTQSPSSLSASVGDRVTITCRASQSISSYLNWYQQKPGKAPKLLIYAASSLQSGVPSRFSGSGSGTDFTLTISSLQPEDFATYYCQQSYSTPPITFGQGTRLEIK
B3: in assay [1], the “IC50, NFkB-luc Ramos, 500 pM hCD40L” value was found to be 1.89e-10 M; the “Max % activation, NFkB-luc Ramos, no ligand” value was found to be 10%; the “Max % inhibition, NFkB-luc Ramos” value was 77%. Besides, in assay [2], the “IC50, NFkB-luc Raji, 900 pM hCD40L” value was 1.35e-10 M; the “Max % activation, NFkB-luc Raji, no ligand” value turned out to be 11%; the “Max % inhibition, NFkB-luc Raji” value stood at 81%. Also, in [3], the “IC50, NFkB-luc THP-1, 10 nM hCD40L” value came to 1130 pM; the “Max % activation, NFkB-luc THP-1, no ligand” value came to 4%; the “Max % inhibition … 10 nM hCD40L” value was determined as 96%. Further, in assay [4], the “% Blocking at highest mAb concentration” value came to 91%.

B4: REGN16334 (bispecific antibody, human IgG4 S228P, kappa)
heavy 1: QLQLQESGPGLVRPSETLSLTCSVSGASMNTNNYYWGWIRQPPGKGLEWIGSGYYNGNTYYNPSLKSRVTISVDTSKNQFSLKLNSVTAADTAVYYCARQTPPRIIGSPNIWGQGTMVTVSSASTKGPSVFPLAPCSRSTSESTAALGCLVKDYFPEPVTVSWNSGALTSGVHTFPAVLQSSGLYSLSSVVTVPSSSLGTKTYTCNVDHKPSNTKVDKRVESKYGPPCPPCPAPGGGGPSVFLFPPKPKDTLMISRTPEVTCVVVDVSQEDPEVQFNWYVDGVEVHNAKTKPREEQFNSTYRVVSVLTVLHQDWLNGKEYKCKVSNKGLPSSIEKTISKAKGQPREPQVYTLPPSQEEMTKNQVSLTCLVKGFYPSDIAVEWESNGQPENNYKTTPPVLDSDGSFFLYSRLTVDKSRWQEGNVFSCSVMHEALHNHYTQKSLSLSLGK
heavy 2: EVQLVESGGGLVQPGGSLRLSCAASGFTFGSYGMAWVRQAPGKGLEWVSAISGSGDYTNYADSVKRRFTISRDNSKNTLYLQMSSLRAEDTAVYYCAKEKTGTTGYLYSGMDVWGQGTTVTVSSASTKGPSVFPLAPCSRSTSESTAALGCLVKDYFPEPVTVSWNSGALTSGVHTFPAVLQSSGLYSLSSVVTVPSSSLGTKTYTCNVDHKPSNTKVDKRVESKYGPPCPPCPAPGGGGPSVFLFPPKPKDTLMISRTPEVTCVVVDVSQEDPEVQFNWYVDGVEVHNAKTKPREEQFNSTYRVVSVLTVLHQDWLNGKEYKCKVSNKGLPSSIEKTISKAKGQPREPQVYTLPPSQEEMTKNQVSLTCLVKGFYPSDIAVEWESNGQPENNYKTTPPVLDSDGSFFLYSRLTVDKSRWQEGNVFSCSVMHEALHNRFTQKSLSLSPGK
light: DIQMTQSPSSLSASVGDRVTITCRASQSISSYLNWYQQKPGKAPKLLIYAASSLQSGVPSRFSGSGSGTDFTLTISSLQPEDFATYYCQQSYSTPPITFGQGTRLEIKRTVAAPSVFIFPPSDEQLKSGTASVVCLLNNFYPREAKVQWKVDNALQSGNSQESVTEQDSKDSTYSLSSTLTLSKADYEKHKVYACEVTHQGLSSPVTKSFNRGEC
notes: also called REGN16634 [sic]
For the molecule B4, in assay [1], the “IC50, NFkB-luc Ramos, 500 pM hCD40L” value stood at 6.93e-11 M; the “Max % activation, NFkB-luc Ramos, no ligand” value was determined as 6%; the “Max % inhibition, NFkB-luc Ramos” value is 91%. In assay [2], the “IC50, NFkB-luc Raji, 900 pM hCD40L” value worked out at 5.76e-11 M; the “Max % activation, NFkB-luc Raji, no ligand” value came out at 13%; the “Max % inhibition, NFkB-luc Raji” value turned out to be 113%. Moreover, in assay [3], the “IC50, NFkB-luc THP-1, 10 nM hCD40L” value is 553 pM; the “Max % activation, NFkB-luc THP-1, no ligand” value amounted to 1%; the “Max % inhibition … 10 nM hCD40L” value worked out at 98%. For the same molecule, in [5], the “% max blockade relative to no mAb, IL-6, B cells, donor 1” value amounted to 84.5%; the “% max blockade relative to no mAb, IL-6, B cells, donor 2” value stood at 92%; the “% max blockade relative to no mAb, IL-6, B cells, donor 3” value was 92%. For the same molecule, in [6], the “% max blockade relative to no mAb, IL-10, B cells, donor 1” value worked out at 74.2%; the “% max blockade relative to no mAb, IL-10, B cells, donor 2” value was found to be 91.4%; the “% max blockade relative to no mAb, IL-10, B cells, donor 3” value came to 92.4%. Further, in [7], the “% max blockade relative to no mAb, TNFa, B cells, donor 1” value was determined as 44%; the “% max blockade relative to no mAb, TNFa, B cells, donor 2” value turned out to be 63.5%; the “% max blockade relative to no mAb, TNFa, B cells, donor 3” value turned out to be 68.5%. Moreover, in assay [8], the “% max blockade relative to no mAb, IL-6, assay #2, donor 1” value is 88.9% and the “% max blockade relative to no mAb, IL-6, assay #2, donor 2” value came to 89.2%. In assay [9], the “% max blockade relative to no mAb, IL-10, assay #2, donor 1” value came out at 87.7% and the “% max blockade relative to no mAb, IL-10, assay #2, donor 2” value came to 89.9%. Further, in assay [10], the “% max blockade relative to no mAb, TNFa, assay #2, donor 1” value was found to be 62.8% and the “% max blockade relative to no mAb, TNFa, assay #2, donor 2” value stood at 51.1%. For the same molecule, the “% Blocking at highest mAb concentration” value in assay [4] turned out to be 98%.

B5: REGN20484 (bispecific antibody, human IgG4 S228P, kappa)
heavy 1: EVQLVESGGGLVQPGGSLRLSCAASGFTFGSYGMAWVRQAPGKGLEWVSAISGSGDYTNYADSVKRRFTISRDNSKNTLYLQMSSLRAEDTAVYYCAKEKTGTTGYLYSGMDVWGQGTTVTVSSASTKGPSVFPLAPCSRSTSESTAALGCLVKDYFPEPVTVSWNSGALTSGVHTFPAVLQSSGLYSLSSVVTVPSSSLGTKTYTCNVDHKPSNTKVDKRVESKYGPPCPPCPAPGGGGPSVFLFPPKPKDTLMISRTPEVTCVVVDVSQEDPEVQFNWYVDGVEVHNAKTKPREEQFNSTYRVVSVLTVLHQDWLNGKEYKCKVSNKGLPSSIEKTISKAKGQPREPQVYTLPPSQEEMTKNQVSLTCLVKGFYPSDIAVEWESNGQPENNYKTTPPVLDSDGSFFLYSRLTVDKSRWQEGNVFSCSVMHEALHNHYTQKSLSLSLGK
heavy 2: EVQLVESGGGLVQPGGSLRLSCAASGFTFSSYAMNWVRQAPGKGLEWVSIISGTIGKTYYADSVKGRFTISRDNSKNTLYLQMNSLRGEDTAVYYCAKDTERDITGSPFDYWGQGTLVTVSSASTKGPSVFPLAPCSRSTSESTAALGCLVKDYFPEPVTVSWNSGALTSGVHTFPAVLQSSGLYSLSSVVTVPSSSLGTKTYTCNVDHKPSNTKVDKRVESKYGPPCPPCPAPGGGGPSVFLFPPKPKDTLMISRTPEVTCVVVDVSQEDPEVQFNWYVDGVEVHNAKTKPREEQFNSTYRVVSVLTVLHQDWLNGKEYKCKVSNKGLPSSIEKTISKAKGQPREPQVYTLPPSQEEMTKNQVSLTCLVKGFYPSDIAVEWESNGQPENNYKTTPPVLDSDGSFFLYSRLTVDKSRWQEGNVFSCSVMHEALHNRFTQKSLSLSPGK
light: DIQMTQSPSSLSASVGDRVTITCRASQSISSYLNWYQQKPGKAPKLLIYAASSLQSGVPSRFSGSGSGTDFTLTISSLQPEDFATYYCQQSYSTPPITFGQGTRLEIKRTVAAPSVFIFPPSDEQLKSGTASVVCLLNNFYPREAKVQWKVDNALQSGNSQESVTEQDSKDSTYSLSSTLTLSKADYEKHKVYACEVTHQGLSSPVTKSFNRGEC
For B5, in [8], the “% max blockade relative to no mAb, IL-6, assay #2, donor 1” value turned out to be 89% and the “% max blockade relative to no mAb, IL-6, assay #2, donor 2” value came to 88.1%. In addition, in assay [9], the “% max blockade relative to no mAb, IL-10, assay #2, donor 1” value came out at 87.1% and the “% max blockade relative to no mAb, IL-10, assay #2, donor 2” value amounted to 90.9%. In assay [10], the “% max blockade relative to no mAb, TNFa, assay #2, donor 1” value came out at 61.9% and the “% max blockade relative to no mAb, TNFa, assay #2, donor 2” value was 52.3%.

The values above are taken from US20250276092A1 (Regeneron, published 2025).
